In IntAct's records for PubMed 15234987:

The substances below were run against fog1_mouse Zfpm1 (UniProt O35615).
Chain of fog1_mouse Zfpm1 (O35615 whole entry): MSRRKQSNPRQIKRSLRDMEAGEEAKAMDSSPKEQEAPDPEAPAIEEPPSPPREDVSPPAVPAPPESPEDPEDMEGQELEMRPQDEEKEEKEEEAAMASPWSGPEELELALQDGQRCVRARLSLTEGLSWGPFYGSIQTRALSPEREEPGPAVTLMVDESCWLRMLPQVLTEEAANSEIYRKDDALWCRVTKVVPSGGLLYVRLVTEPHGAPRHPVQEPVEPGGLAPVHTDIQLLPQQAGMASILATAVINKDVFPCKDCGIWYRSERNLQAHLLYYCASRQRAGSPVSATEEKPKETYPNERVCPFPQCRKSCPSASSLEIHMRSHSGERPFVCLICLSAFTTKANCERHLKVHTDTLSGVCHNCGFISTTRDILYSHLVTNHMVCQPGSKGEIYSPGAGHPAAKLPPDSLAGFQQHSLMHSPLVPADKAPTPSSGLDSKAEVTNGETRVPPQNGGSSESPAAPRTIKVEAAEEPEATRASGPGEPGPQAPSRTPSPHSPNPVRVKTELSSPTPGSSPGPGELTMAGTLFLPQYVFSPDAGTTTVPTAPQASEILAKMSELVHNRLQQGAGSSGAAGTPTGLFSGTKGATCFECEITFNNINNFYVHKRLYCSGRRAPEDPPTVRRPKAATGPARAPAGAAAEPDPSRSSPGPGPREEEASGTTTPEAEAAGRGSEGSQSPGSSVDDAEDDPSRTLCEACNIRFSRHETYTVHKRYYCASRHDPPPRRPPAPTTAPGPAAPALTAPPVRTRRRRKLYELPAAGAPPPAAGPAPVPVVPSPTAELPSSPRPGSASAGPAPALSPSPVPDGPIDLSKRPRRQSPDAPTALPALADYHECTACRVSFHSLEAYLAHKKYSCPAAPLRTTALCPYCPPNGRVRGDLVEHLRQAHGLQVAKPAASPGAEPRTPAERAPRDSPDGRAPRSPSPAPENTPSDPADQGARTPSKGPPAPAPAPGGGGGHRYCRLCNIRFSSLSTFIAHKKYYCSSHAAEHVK

Chain of Transforming acidic coiled-coil-containing protein 3 (Mus musculus), Q9JJ11 I625A;S626A (Q9JJ11 whole entry I625A/S626A): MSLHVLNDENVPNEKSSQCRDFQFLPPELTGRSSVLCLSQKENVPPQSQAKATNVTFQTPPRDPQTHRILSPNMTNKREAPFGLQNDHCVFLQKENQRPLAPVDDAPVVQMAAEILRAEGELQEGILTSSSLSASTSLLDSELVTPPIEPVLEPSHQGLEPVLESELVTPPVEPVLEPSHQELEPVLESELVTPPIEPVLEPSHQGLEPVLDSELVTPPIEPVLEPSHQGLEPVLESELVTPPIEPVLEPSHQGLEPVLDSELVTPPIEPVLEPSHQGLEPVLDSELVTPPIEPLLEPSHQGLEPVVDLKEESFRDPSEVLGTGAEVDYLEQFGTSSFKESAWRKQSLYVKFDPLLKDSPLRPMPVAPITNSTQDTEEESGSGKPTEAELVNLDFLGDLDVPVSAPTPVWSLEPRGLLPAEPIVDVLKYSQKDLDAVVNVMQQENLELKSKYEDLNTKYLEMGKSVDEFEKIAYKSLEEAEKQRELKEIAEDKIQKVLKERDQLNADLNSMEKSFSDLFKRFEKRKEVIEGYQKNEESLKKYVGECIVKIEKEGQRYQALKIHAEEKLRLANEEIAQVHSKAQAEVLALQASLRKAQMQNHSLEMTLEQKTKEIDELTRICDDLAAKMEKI
Chain of Transforming acidic coiled-coil-containing protein 3 (Mus musculus), Q9JJ11 R619A;I620A (Q9JJ11 whole entry R619A/I620A): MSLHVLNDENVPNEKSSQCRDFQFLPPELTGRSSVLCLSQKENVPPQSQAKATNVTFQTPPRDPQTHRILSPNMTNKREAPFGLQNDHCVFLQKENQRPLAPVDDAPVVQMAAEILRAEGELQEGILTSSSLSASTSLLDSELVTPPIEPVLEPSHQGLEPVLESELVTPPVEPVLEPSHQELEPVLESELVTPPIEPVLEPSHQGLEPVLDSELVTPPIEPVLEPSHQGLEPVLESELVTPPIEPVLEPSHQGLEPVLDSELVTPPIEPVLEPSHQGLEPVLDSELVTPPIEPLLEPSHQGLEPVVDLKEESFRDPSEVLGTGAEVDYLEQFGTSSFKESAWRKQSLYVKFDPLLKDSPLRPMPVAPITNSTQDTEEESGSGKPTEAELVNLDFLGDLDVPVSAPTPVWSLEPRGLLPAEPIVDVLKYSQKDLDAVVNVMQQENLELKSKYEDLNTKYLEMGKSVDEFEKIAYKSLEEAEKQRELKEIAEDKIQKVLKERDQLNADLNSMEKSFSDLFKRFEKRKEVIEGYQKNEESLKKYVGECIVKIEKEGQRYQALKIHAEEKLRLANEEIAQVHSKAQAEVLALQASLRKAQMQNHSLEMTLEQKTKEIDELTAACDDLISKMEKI
Chain of Transforming acidic coiled-coil-containing protein 3 (Mus musculus), Q9JJ11 D615A;E616A (Q9JJ11 whole entry D615A/E616A): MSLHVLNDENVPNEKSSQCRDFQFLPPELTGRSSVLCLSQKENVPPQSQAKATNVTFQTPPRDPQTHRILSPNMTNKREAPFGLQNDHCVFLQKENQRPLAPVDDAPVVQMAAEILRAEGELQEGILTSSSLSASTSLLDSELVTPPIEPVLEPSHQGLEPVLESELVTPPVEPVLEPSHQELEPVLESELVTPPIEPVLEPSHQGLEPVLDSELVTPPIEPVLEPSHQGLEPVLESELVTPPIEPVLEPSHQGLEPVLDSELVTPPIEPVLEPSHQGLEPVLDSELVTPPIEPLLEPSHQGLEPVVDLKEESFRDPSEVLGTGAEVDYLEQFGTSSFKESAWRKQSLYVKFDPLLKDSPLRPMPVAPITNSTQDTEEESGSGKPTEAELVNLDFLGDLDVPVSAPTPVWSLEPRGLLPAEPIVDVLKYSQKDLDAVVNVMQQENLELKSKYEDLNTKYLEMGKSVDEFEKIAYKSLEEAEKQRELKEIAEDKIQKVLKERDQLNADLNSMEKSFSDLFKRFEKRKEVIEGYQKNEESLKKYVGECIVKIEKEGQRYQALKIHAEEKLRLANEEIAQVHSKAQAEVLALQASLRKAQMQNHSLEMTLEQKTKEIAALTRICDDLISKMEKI
Chain of Transforming acidic coiled-coil-containing protein 3 (Mus musculus), Q9JJ11 E629A;K630A (Q9JJ11 whole entry E629A/K630A): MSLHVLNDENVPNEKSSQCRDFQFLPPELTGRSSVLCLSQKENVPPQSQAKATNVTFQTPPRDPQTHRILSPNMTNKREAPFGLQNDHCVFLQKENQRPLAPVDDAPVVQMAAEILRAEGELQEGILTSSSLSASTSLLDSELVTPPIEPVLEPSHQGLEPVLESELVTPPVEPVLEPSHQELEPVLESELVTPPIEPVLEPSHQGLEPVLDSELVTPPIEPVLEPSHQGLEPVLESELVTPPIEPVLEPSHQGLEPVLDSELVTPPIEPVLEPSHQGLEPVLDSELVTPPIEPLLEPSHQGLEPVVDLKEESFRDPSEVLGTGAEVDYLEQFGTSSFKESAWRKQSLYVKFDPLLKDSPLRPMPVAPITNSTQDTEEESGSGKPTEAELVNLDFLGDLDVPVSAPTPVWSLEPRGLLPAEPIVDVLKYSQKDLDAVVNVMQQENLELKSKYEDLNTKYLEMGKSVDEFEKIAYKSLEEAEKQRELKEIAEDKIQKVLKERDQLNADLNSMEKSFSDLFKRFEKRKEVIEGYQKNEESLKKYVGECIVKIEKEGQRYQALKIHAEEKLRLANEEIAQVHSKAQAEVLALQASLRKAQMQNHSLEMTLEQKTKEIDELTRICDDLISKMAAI
Chain of Transforming acidic coiled-coil-containing protein 3 (Mus musculus), Q9JJ11 D622A;D623A (Q9JJ11 whole entry D622A/D623A): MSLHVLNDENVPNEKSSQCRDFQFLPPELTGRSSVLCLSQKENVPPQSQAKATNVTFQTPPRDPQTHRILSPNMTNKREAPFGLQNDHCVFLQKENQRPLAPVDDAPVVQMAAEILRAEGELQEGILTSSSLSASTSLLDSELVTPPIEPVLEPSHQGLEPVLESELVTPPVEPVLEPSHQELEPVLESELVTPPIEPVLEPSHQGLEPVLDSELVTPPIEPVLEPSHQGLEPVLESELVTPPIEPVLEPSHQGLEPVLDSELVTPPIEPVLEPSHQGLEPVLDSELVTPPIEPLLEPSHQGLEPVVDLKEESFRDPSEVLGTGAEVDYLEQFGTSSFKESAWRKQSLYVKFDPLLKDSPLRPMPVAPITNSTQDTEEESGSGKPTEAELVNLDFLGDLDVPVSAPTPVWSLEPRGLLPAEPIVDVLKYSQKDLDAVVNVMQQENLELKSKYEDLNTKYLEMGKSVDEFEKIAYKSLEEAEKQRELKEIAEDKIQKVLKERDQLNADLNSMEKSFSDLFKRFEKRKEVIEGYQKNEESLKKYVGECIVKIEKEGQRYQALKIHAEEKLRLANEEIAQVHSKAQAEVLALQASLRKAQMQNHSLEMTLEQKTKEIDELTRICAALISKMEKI

Effect of a mutation on the interaction, decreasing interaction:
Transforming acidic coiled-coil-containing protein 3 (Mus musculus), Q9JJ11 D615A;E616A
Transforming acidic coiled-coil-containing protein 3 (Mus musculus), Q9JJ11 D622A;D623A
Transforming acidic coiled-coil-containing protein 3 (Mus musculus), Q9JJ11 E629A;K630A
Transforming acidic coiled-coil-containing protein 3 (Mus musculus), Q9JJ11 I625A;S626A
Transforming acidic coiled-coil-containing protein 3 (Mus musculus), Q9JJ11 R619A;I620A
